Source: article PMC12302927

What was measured:
Assay in all cases: co-IP; 293T cells co-transfected with HA-tagged STAT1 (WT, K193R, K584R) and FLAG-p300; band intensities quantified; which protein was precipitated not given
HA-tagged STAT1 (WT) = HA-tagged STAT1 (WT) (UniProt P42224)
HA-tagged STAT1 K584R = HA-tagged STAT1 K584R (UniProt P42224)
HA-tagged STAT1 K193R = HA-tagged STAT1 K193R (UniProt P42224)

relative co-IP band intensity (HA-tagged STAT1 (WT)): 0.202
relative co-IP band intensity (HA-tagged STAT1 K584R): 0.239
relative co-IP band intensity (HA-tagged STAT1 K193R): 0.194
Substance: FLAG-p300, Q09472 1-2414
